Residue numbers refer to the chain shown, from its start.
Experiments:
Assay in all cases: EMSA; 5 mM Ca2+; EMSA: 40 mM Tris-acetate pH 8.3, 0.1 mg/ml BSA, 10% glycerol, 5 mM CaCl2 or 0.1 mM EDTA, 1 nM DNA, room temperature, 15 min
[1] = target: T1, BsaWI R130A&R259A (UniProt Q6UQ65 1-272, R130A;R259A); settings: protein: recombinant; chain copies: 2; label: 33P; blunt
T1 sequence: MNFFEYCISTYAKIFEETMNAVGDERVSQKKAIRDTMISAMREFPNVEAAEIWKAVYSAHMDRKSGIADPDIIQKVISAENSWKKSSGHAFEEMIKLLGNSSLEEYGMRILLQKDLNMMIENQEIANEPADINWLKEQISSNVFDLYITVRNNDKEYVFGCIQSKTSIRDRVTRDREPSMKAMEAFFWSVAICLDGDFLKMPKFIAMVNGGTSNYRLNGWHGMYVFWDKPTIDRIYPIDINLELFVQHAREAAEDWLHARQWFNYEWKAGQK

[2] = target: T2, BsaWI R130A (UniProt Q6UQ65 1-272, R130A); settings: protein: recombinant; chain copies: 2; label: 33P; blunt
T2 sequence: T1 sequence with A259R

[3] = target: T3, BsaWI wt (UniProt Q6UQ65 1-272); settings: protein: recombinant; chain copies: 4; label: 33P; blunt
T3 sequence: T1 sequence with A130R, A259R

[4] = target: T4, BsaWI W262A (UniProt Q6UQ65 1-272, W262A); settings: protein: recombinant; chain copies: 2; label: 33P; blunt
T4 sequence: T1 sequence with A130R, A259R, W262A

[5] = target: T5, BsaWI R259A (UniProt Q6UQ65 1-272, R259A); settings: protein: recombinant; chain copies: 2; label: 33P; blunt
T5 sequence: T1 sequence with A130R

B1: SP (dsDNA)
DNA 1: GCCTTTCGGTTTACCGGTGTCATTCCGCTG
DNA 2: CAGCGGAATGACACCGGTAAACCGAAAGGC
Kd [1]: 2.7 ± 0.5 nM
Kd [2]: 3.9 ± 0.6 nM
Kd [3]: 2.9 ± 0.4 nM
Kd [4]: 2.7 ± 0.8 nM
Kd [5]: 2 ± 0.3 nM

From publication PMC4652773, “Functional significance of protein assemblies predicted by the crystal structure of the restriction endonuclease BsaWI”
